Data from PMC6678494, “Characterization of the First Bacterial and Thermostable GDP-Mannose 3,5-Epimerase” (International Journal of Molecular Sciences, 2019).

Columns and labels:
MfGM35E = target: T1, MfGM35E (Candidatus Methylacidiphilum fumarolicum, UniProt A0ABM9IGG7); assay: specific activity with added NAD+, HPAEC-PAD; assay type: biochemical; conditions: 2 mM GDP-Man, 100 mM MOPS pH 7.5, 50 °C; independent of added NAD+ concentration
T1 construct: gene MFUM_2356; codon-optimized gene in pET21 (NdeI/XhoI), C-terminal His6-tag kept, E. coli BL21(DE3), Ni-NTA, about 37 kDa

[1] = substrate: Nc1nc2c(ncn2[C@@H]2O[C@H](COP(=O)(O)OP(=O)(O)O[C@H]3O[C@H](CO)[C@@H](O)[C@H](O)[C@@H]3O)[C@@H](O)[C@H]2O)c(=O)[nH]1; assay: initial rate of GDP-L-galactose formation, HPAEC-PAD, Michaelis-Menten fit; assay type: biochemical, Candidatus Methylacidiphilum fumarolicum; conditions: 100 mM MOPS pH 7, 60 °C, 20-2000 µM substrate

## NC(=O)c1ccc[n+]([C@@H]2O[C@H](COP(=O)(O)OP(=O)(O)OC[C@H]3O[C@@H](n4cnc5c(N)ncnc54)[C@H](O)[C@@H]3O)[C@@H](O)[C@H]2O)c1 [NAD^+]
MfGM35E
  % increase in activity: 65%

B1: MfGM35E (Candidatus Methylacidiphilum fumarolicum) (protein)
chain: MKKALVAGAGGFIGHHLVNFLKEKGYWVRGVDIKEPEYEKSRSDEFYLLDLRYWGNCLEATKGVDEVYQLAADMGGIGYISGNHAEIAKNNILINTHMLEASYQNGVKRYFYSSSACIYPSYRQQSVDVIPLKEEDAMPADPEEGYGWEKLFAEKLCQYYQEDKGIETRIARFHNVYGPLGTYKGGREKAPAAICRKIALAEDSSEIEVWGDGKQTRSFLYIQDCVEGIYLITQSDYPKPLNLGSEELVTIDQLVEMTAKVANKNIRIRHNLSKPQGVRGRNSDNSKLYKITGWRPKFPLLEGLKLTYPWIAERVARERNMQGCQ
notes: codon-optimized gene in pET21 (NdeI/XhoI), C-terminal His6-tag kept, E. coli BL21(DE3), Ni-NTA, about 37 kDa
[1]
  Km: 98 µM
  kcat: 0.2 s⁻¹
